Data published in patent US20130324409A1 (University of California, published 2013).
Numbering of substitutions follows the chain as printed. In names and notes the source's numbering stands.

How the values were obtained:
[1] = target: T1, PYL4 6×His-tagged protein
T1 chain: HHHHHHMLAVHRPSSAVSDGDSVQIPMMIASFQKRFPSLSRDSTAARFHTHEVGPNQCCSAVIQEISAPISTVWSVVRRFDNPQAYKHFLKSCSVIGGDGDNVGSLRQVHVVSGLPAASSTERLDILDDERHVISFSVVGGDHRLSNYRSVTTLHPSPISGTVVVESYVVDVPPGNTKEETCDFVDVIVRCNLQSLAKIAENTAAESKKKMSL

GST-HAB1 = target: T2, GST-HAB1 (Arabidopsis, UniProt Q9CAJ0 23-511); experiment: cell-based or functional assay
T2 sequence (looked up): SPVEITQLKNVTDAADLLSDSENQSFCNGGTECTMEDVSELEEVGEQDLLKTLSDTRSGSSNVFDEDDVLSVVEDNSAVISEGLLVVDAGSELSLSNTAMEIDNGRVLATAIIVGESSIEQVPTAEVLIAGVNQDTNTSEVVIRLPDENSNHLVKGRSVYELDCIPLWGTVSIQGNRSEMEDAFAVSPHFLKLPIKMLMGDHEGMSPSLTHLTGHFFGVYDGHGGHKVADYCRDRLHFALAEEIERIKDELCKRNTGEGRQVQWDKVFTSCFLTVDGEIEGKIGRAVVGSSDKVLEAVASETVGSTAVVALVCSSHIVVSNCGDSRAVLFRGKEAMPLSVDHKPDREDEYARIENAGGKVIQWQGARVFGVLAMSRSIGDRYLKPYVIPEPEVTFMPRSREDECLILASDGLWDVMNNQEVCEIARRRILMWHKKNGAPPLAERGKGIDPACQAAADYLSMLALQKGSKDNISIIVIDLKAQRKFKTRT

[2] = target: T3, ABI2^G168D encoded by abi2-1 (yeast two-hybrid construct) (UniProt O04719 1-423); experiment: yeast two-hybrid
T3 construct: ABA insensitive mutant protein; also called mutant protein encoded by abi2-1
T3 sequence (looked up): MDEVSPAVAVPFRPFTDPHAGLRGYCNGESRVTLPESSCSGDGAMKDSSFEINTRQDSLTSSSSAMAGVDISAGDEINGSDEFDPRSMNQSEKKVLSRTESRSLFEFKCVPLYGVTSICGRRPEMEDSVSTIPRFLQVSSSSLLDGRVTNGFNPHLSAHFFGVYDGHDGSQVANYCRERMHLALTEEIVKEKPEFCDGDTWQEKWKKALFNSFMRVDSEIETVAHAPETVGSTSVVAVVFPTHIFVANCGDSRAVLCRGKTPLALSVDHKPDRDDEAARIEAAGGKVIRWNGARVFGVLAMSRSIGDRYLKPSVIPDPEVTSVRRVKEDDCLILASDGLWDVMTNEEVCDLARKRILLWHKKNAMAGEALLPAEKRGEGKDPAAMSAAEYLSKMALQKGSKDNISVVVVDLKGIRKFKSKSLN

[3] = target: T4, ABI1 (yeast two-hybrid construct) (UniProt P49597 1-434); experiment: yeast two-hybrid
T4 construct: also called wild type ABI1; cDNA C104649
T4 sequence (looked up): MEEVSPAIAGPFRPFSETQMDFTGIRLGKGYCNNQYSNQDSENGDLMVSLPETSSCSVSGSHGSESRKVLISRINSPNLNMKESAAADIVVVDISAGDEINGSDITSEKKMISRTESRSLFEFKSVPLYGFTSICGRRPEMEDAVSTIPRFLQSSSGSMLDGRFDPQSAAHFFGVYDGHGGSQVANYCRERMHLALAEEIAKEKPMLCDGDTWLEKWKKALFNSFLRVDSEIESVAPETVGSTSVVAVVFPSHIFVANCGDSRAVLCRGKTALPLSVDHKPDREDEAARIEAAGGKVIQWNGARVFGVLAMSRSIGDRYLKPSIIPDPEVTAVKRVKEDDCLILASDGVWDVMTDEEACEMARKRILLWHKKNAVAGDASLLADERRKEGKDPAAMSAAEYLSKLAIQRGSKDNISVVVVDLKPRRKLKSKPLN

[4] = target: T5, ABI2 (yeast two-hybrid construct) (UniProt O04719 1-423); experiment: yeast two-hybrid
T5 construct: also called wild type ABI2; cDNA U24491
T5 sequence (looked up): T3 sequence (looked up) with D168G

GST-ABI1 = target: T6, GST-ABI1 (UniProt P49597 1-434); experiment: His-tag pull-down, E. coli lysate holding the PP2C
T6 construct: Used as cleared E. coli lysate in the pull-downs; not shown: glutathione S-transferase (GST)
T6 sequence (looked up): T4 sequence (looked up)
Procedure: (§1) To explore the functional implications of the PYR1-PP2C interaction, we examined if an ABA response could be reconstituted in vitro. Recombinant GST-HAB1, GST-ABI1 and GST-ABI2 were expressed in E. coli and tested for ligand-dependent interactions with 6×His-PYR1 in pull-down assays. Purified 6×His-PYR1 and GST-HAB1 (20 and 100 μg respectively, 8 μM PYR1 final concentration), were combined in 100 μl TBS containing 10 μM (+)-ABA or 1% DMSO for negative control. The reaction was incubated for 90 minutes at RT and 5 μl of PrepEase (USB) His-tagged protein purification resin was added. The resin and reaction mixture was incubated 30 min at RT with gentle shaking at 5 min intervals. The resin was washed five times with TBS containing 10 μM (+)-ABA. After the final wash, the bound protein was eluted in 20 μl SDS-PAGE buffer, boiled for 5 minutes and centrifuged. 5 μl of eluate was analyzed on SDS-PAGE. For pull-downs with ABI1 and ABI2, crude lysates were used in a similar method, except purified PP2C was replaced with cleared E. coli lysates. The amount of lysate added was determined by SDS-page analysis to yield ˜100 μg PP2C, such that the same stoichiometry was used as in assays using purified proteins.

GST-ABI2 = target: T7, GST-ABI2 (UniProt O04719 1-423); experiment: His-tag pull-down, E. coli lysate holding the PP2C
T7 construct: Used as cleared E. coli lysate in the pull-downs; not shown: glutathione S-transferase (GST)
T7 sequence (looked up): T3 sequence (looked up) with D168G
Procedure: as §1

B1: GST-HAB1 (protein)
chain: T2 sequence (looked up)
Q: B1 was tested. Which “HAB1 phosphatase activity (substrate pNPP)” value [1] did it give?
A: (+)-ABA inhibits HAB1 phosphatase activity in the presence of PYL4

B2: 6×His-PYR1 (receptor, not shown: small tags and cut ends)
chain: MPSELTPEERSELKNSIAEFHTYQLDPGSCSSLHAQRIHAPPELVWSIVRRFDKPQTYKHFIKSCSVEQNFEMRVGCTRDVIVISGLPANTSTERLDILDDERRVTGFSIIGGEHRLTNYKSVTTVHRFEKENRIWTVVLESYVVDMPEGNSEDDTRMFADTVVKLNLQKLATVAEAMARNSGDGSGSQVT
Q: For B2, which “IC50 of (+)-ABA for inhibition of HAB1 phosphatase activity (substrate pNPP) in the presence of PYR1” value (GST-HAB1) is on record?
A: 0.18 µM

B3: BD-PYR1 fusion protein (receptor, not shown: large carriers; small tags and cut ends)
chain: B2 chain
notes: Pyr1 open reading frame cloned in frame into pBD-GAL4 Cam, expressed in yeast Y190; also called PYR1 Y2H bait construct; PYRABACTIN … 1
Q: Does B3 bind [2]?
A: no binding

Q: Does B3 bind [3]?
A: binds

Q: Does B3 bind [4]?
A: binds

B4: 6×His-PYR1^P88S (receptor)
chain: B2 chain with P88S
notes: also called pyr1-3 mutant protein; not shown: 6×His tag and vector residues of pET28
Q: Does B4 bind (GST-ABI1)?
A: no binding (tested: 10 µM (+)-ABA)

Q: Does B4 bind (GST-ABI2)?
A: no binding (tested: 10 µM (+)-ABA)
